Results as given in US9439886B2, “Methods for producing crosslinked flavonoid hydrogels” (Agency for Science, Technology and Research, priority 2009, dated 2016).

What was measured:
[1] = Gelation time of HA-EGCG hydrogels (vial tilting); assay type: physicochemical; conditions: pH 7.4, no exogenous H2O2, HA-EGCG 17.5 mg/ml
Protocol: Preparation of HA-EGCG solution: For all experiments described below, HA-EGCG stock solution was prepared by dissolving the conjugates in distilled water at 25 mg/ml at room temperature using a magnetic stirrer. Dissolution took about 25 min and the pH of the solution was 2.5. Then the pH was brought to 6 using 2 M NaOH before diluting with sodium phosphate buffer (final ionic strength: 0.15 M) to the desired concentration and pH, depending on the gelation condition.
Formation of HA-EGCG hydrogels through air autoxidation: To form HA-EGCG hydrogel by air autoxidation, HA-EGCG solution was diluted to 17.5 mg/ml by adding sodium phosphate buffer with pH between 6.0 to 8. To determine the gelation time, glass vials containing 0.25 ml of HA-EGCG were tilted frequently at 90 degrees for 5 sec, the time at which no obvious flowing motion could be observed was recorded as the gelation time.
Acceleration of HA-EGCG hydrogel formation through air autoxidation by adding catalase: Stock solution of catalase was prepared by dissolving the enzyme in distilled water at 22.5 kU/ml. […] The gelation time was determined as described above.
Formation of HA-EGCG hydrogel by HRP-mediated crosslinking reaction: HRP stock solution was prepared in water at 6.25 U/ml. […] The gelation time was determined as described above.

[2] = H2O2 production by HA-EGCG (PeroXOquant peroxide assay); assay type: physicochemical; conditions: HA-EGCG 10 mg/ml; pH 7.4; over 35 min; increased with time
Protocol: Measurement of H2O2 Production by HA-EGCG: The amount of H2O2 produced by HA-EGCG was determined using the PeroXOquant Quantitative Peroxide Assay Kits from Pierce. In order to determine the amount of H2O2 produced during the dissolution process, a sample of the dissolved conjugates was diluted 20-fold with distilled water, 20 μl of which was added to the well of a 96-wellplate follow by the addition of 200 μl working reagent prepared according to manufacturer's protocol. The HA-EGCG solution was then diluted to 10 mg/ml with phosphate buffer. The final ionic strength of the mixture was 0.15 M and pH was 7.4. For the next 35 min, 20 μl of the HA-EGCG solution was drawn out every 5 min and diluted 10-fold with distilled water. 20 μl of the diluted sample was then added to a well of a 96-wellplate followed by 200 μl of working reagents. After the last sample was collected and the working reagent added, the plate was incubated for another 1 h before reading the absorbance at 595 nm. The amount of H2O2 produced by HA-EGCG was determined by comparing to a set of H2O2 standards.

hyaluronic acid-epigallocatechin gallate [HA-EGCG]
gelation time ([1]; HRP 0 unit/ml): 50 min | gelation time ([1]; HRP 0.125 unit/ml): 9 min | amount of H2O2 generated during air-autoxidation [2]: micromolar range
